{"source": "FireProtDB (doi:10.1074/jbc.m110728200)", "parents": {"B1": {"name": "Lysozyme C, P61626 (parent)", "chain": "MKALIVLGLVLLSVTVQGKVFERCELARTLKRLGMDGYRGISLANWMCLAKWESGYNTRATNYNAGDRSTDYGIFQINSRYWCNDGKTPGAVNACHLSCSALLQDNIADAVACAKRVVRDPQGIRAWVAWRNRCQNRDVRQYVQGCGV"}}, "data": [{"variants_of": "B1", "details": "Homo sapiens; pH 2.66; Thermal; DSC; Gly-HCl 0.05 M; structure 1LZ1; whole UniProt chain shown", "units": {"Tm": "°C", "unfolding enthalpy (calorimetric)": "kcal/mol", "unfolding enthalpy (van 't Hoff)": "kcal/mol"}, "values": [{"variant": "MKALIVLGLVLLSVTVQGKDFERCELARTLKRLGMDGYRGISLANWMCLAKWESGYNTRATNYNAGDRSTDYGIFQINSRYWCNDGKTPGAVNACHLSCSALLQDNIADAVACAKRVVRDPQGIRAWVAWRNRCQNRDVRQYVQGCGV", "note": "[V20D]", "Tm": 59.6, "unfolding enthalpy (calorimetric)": 103, "unfolding enthalpy (van 't Hoff)": 99.9}, {"variant": "MKALIVLGLVLLSVTVQGKVFERCELARTLKRLGMDGYRGISLANWMCLAKWESGYNTRATNYNAGDRSTDYGIFQINSRYWCNDGKTPGAVNACHLSCSALLQDNIADAVACAKRVVRDPQGIRAWYAWRNRCQNRDVRQYVQGCGV", "note": "[V128Y]", "Tm": 63.3, "unfolding enthalpy (calorimetric)": 106, "unfolding enthalpy (van 't Hoff)": 105}]}, {"variants_of": "B1", "details": "Homo sapiens; pH 2.7; 64.9 °C; Thermal; DSC; Gly-HCl 0.05 M; structure 1LZ1; whole UniProt chain shown", "units": {"ddG of mutation (higher = less stable)": "kcal/mol", "heat capacity change of unfolding": "kcal/mol/K", "unfolding enthalpy (calorimetric)": "kcal/mol"}, "values": [{"variant": "MKALIVLGLVLLSVTVQGKDFERCELARTLKRLGMDGYRGISLANWMCLAKWESGYNTRATNYNAGDRSTDYGIFQINSRYWCNDGKTPGAVNACHLSCSALLQDNIADAVACAKRVVRDPQGIRAWVAWRNRCQNRDVRQYVQGCGV", "note": "[V20D]", "ddG of mutation (higher = less stable)": 1.43, "heat capacity change of unfolding": 1.58, "unfolding enthalpy (calorimetric)": 111}, {"variant": "MKALIVLGLVLLSVTVQGKSFERCELARTLKRLGMDGYRGISLANWMCLAKWESGYNTRATNYNAGDRSTDYGIFQINSRYWCNDGKTPGAVNACHLSCSALLQDNIADAVACAKRVVRDPQGIRAWVAWRNRCQNRDVRQYVQGCGV", "note": "[V20S]", "ddG of mutation (higher = less stable)": 1.41, "heat capacity change of unfolding": 1.55, "unfolding enthalpy (calorimetric)": 111}, {"variant": "MKALIVLGLVLLSVTVQGKVFERCELARTLKRLGMDGYRGISLANWMCLAKWESGYNTRATNYNAGDRSTDYGIFQINSRYWCNDGKTPGAVNACHLSCSALLQDNIADAVACAKRVVRDPQGIRAWYAWRNRCQNRDVRQYVQGCGV", "note": "[V128Y]", "ddG of mutation (higher = less stable)": 0.14, "unfolding enthalpy (calorimetric)": 108}]}, {"variants_of": "B1", "details": "Homo sapiens; pH 2.7; Thermal; DSC; Gly-HCl 0.05 M; structure 1LZ1; whole UniProt chain shown", "units": {"Tm": "°C", "change of melting temperature, mutant - wild type (higher = more stable)": "°C"}, "values": [{"variant": "MKALIVLGLVLLSVTVQGKDFERCELARTLKRLGMDGYRGISLANWMCLAKWESGYNTRATNYNAGDRSTDYGIFQINSRYWCNDGKTPGAVNACHLSCSALLQDNIADAVACAKRVVRDPQGIRAWVAWRNRCQNRDVRQYVQGCGV", "note": "[V20D]", "Tm": 60.4, "change of melting temperature, mutant - wild type (higher = more stable)": -4.5}, {"variant": "MKALIVLGLVLLSVTVQGKSFERCELARTLKRLGMDGYRGISLANWMCLAKWESGYNTRATNYNAGDRSTDYGIFQINSRYWCNDGKTPGAVNACHLSCSALLQDNIADAVACAKRVVRDPQGIRAWVAWRNRCQNRDVRQYVQGCGV", "note": "[V20S]", "Tm": 60.5, "change of melting temperature, mutant - wild type (higher = more stable)": -4.4}, {"variant": "MKALIVLGLVLLSVTVQGKVFERCELARTLKRLGMDGYRGISLANWMCLAKWESGYNTRATNYNAGDRSTDYGIFQINSRYWCNDGKTPGAVNACHLSCSALLQDNIADAVACAKRVVRDPQGIRAWYAWRNRCQNRDVRQYVQGCGV", "note": "[V128Y]", "Tm": 64.4, "change of melting temperature, mutant - wild type (higher = more stable)": -0.5}]}, {"variants_of": "B1", "details": "Homo sapiens; pH 2.96; Thermal; DSC; Gly-HCl 0.05 M; structure 1LZ1; whole UniProt chain shown", "units": {"Tm": "°C", "unfolding enthalpy (calorimetric)": "kcal/mol", "unfolding enthalpy (van 't Hoff)": "kcal/mol"}, "values": [{"variant": "MKALIVLGLVLLSVTVQGKDFERCELARTLKRLGMDGYRGISLANWMCLAKWESGYNTRATNYNAGDRSTDYGIFQINSRYWCNDGKTPGAVNACHLSCSALLQDNIADAVACAKRVVRDPQGIRAWVAWRNRCQNRDVRQYVQGCGV", "note": "[V20D]", "Tm": 64.9, "unfolding enthalpy (calorimetric)": 112, "unfolding enthalpy (van 't Hoff)": 108}]}, {"variants_of": "B1", "details": "Homo sapiens; pH 3.01; Thermal; DSC; Gly-HCl 0.05 M; structure 1LZ1; whole UniProt chain shown", "units": {"Tm": "°C", "unfolding enthalpy (calorimetric)": "kcal/mol", "unfolding enthalpy (van 't Hoff)": "kcal/mol"}, "values": [{"variant": "MKALIVLGLVLLSVTVQGKDFERCELARTLKRLGMDGYRGISLANWMCLAKWESGYNTRATNYNAGDRSTDYGIFQINSRYWCNDGKTPGAVNACHLSCSALLQDNIADAVACAKRVVRDPQGIRAWVAWRNRCQNRDVRQYVQGCGV", "note": "[V20D]", "Tm": 65.7, "unfolding enthalpy (calorimetric)": 113, "unfolding enthalpy (van 't Hoff)": 109}]}, {"variants_of": "B1", "details": "Homo sapiens; pH 3.14; Thermal; DSC; Gly-HCl 0.05 M; structure 1LZ1; whole UniProt chain shown", "units": {"Tm": "°C", "unfolding enthalpy (calorimetric)": "kcal/mol", "unfolding enthalpy (van 't Hoff)": "kcal/mol"}, "values": [{"variant": "MKALIVLGLVLLSVTVQGKDFERCELARTLKRLGMDGYRGISLANWMCLAKWESGYNTRATNYNAGDRSTDYGIFQINSRYWCNDGKTPGAVNACHLSCSALLQDNIADAVACAKRVVRDPQGIRAWVAWRNRCQNRDVRQYVQGCGV", "note": "[V20D]", "Tm": 68, "unfolding enthalpy (calorimetric)": 116, "unfolding enthalpy (van 't Hoff)": 113}]}, {"variants_of": "B1", "details": "Homo sapiens; pH 3.3; Thermal; DSC; Gly-HCl 0.05 M; structure 1LZ1; whole UniProt chain shown", "units": {"Tm": "°C", "unfolding enthalpy (calorimetric)": "kcal/mol", "unfolding enthalpy (van 't Hoff)": "kcal/mol"}, "values": [{"variant": "MKALIVLGLVLLSVTVQGKDFERCELARTLKRLGMDGYRGISLANWMCLAKWESGYNTRATNYNAGDRSTDYGIFQINSRYWCNDGKTPGAVNACHLSCSALLQDNIADAVACAKRVVRDPQGIRAWVAWRNRCQNRDVRQYVQGCGV", "note": "[V20D]", "Tm": 70.2, "unfolding enthalpy (calorimetric)": 120, "unfolding enthalpy (van 't Hoff)": 118}]}, {"variants_of": "B1", "details": "Homo sapiens; pH 2.65; Thermal; DSC; Gly-HCl 0.05 M; structure 1LZ1; whole UniProt chain shown", "units": {"Tm": "°C", "unfolding enthalpy (calorimetric)": "kcal/mol", "unfolding enthalpy (van 't Hoff)": "kcal/mol"}, "values": [{"variant": "MKALIVLGLVLLSVTVQGKSFERCELARTLKRLGMDGYRGISLANWMCLAKWESGYNTRATNYNAGDRSTDYGIFQINSRYWCNDGKTPGAVNACHLSCSALLQDNIADAVACAKRVVRDPQGIRAWVAWRNRCQNRDVRQYVQGCGV", "note": "[V20S]", "Tm": 59.4, "unfolding enthalpy (calorimetric)": 103, "unfolding enthalpy (van 't Hoff)": 103}]}, {"variants_of": "B1", "details": "Homo sapiens; pH 2.83; Thermal; DSC; Gly-HCl 0.05 M; structure 1LZ1; whole UniProt chain shown", "units": {"Tm": "°C", "unfolding enthalpy (calorimetric)": "kcal/mol", "unfolding enthalpy (van 't Hoff)": "kcal/mol"}, "values": [{"variant": "MKALIVLGLVLLSVTVQGKSFERCELARTLKRLGMDGYRGISLANWMCLAKWESGYNTRATNYNAGDRSTDYGIFQINSRYWCNDGKTPGAVNACHLSCSALLQDNIADAVACAKRVVRDPQGIRAWVAWRNRCQNRDVRQYVQGCGV", "note": "[V20S]", "Tm": 62.9, "unfolding enthalpy (calorimetric)": 108, "unfolding enthalpy (van 't Hoff)": 107}]}, {"variants_of": "B1", "details": "Homo sapiens; pH 3.09; Thermal; DSC; Gly-HCl 0.05 M; structure 1LZ1; whole UniProt chain shown", "units": {"Tm": "°C", "unfolding enthalpy (calorimetric)": "kcal/mol", "unfolding enthalpy (van 't Hoff)": "kcal/mol"}, "values": [{"variant": "MKALIVLGLVLLSVTVQGKSFERCELARTLKRLGMDGYRGISLANWMCLAKWESGYNTRATNYNAGDRSTDYGIFQINSRYWCNDGKTPGAVNACHLSCSALLQDNIADAVACAKRVVRDPQGIRAWVAWRNRCQNRDVRQYVQGCGV", "note": "[V20S]", "Tm": 67.1, "unfolding enthalpy (calorimetric)": 115, "unfolding enthalpy (van 't Hoff)": 114}]}, {"variants_of": "B1", "details": "Homo sapiens; pH 3.45; Thermal; DSC; Gly-HCl 0.05 M; structure 1LZ1; whole UniProt chain shown", "units": {"Tm": "°C", "unfolding enthalpy (calorimetric)": "kcal/mol", "unfolding enthalpy (van 't Hoff)": "kcal/mol"}, "values": [{"variant": "MKALIVLGLVLLSVTVQGKSFERCELARTLKRLGMDGYRGISLANWMCLAKWESGYNTRATNYNAGDRSTDYGIFQINSRYWCNDGKTPGAVNACHLSCSALLQDNIADAVACAKRVVRDPQGIRAWVAWRNRCQNRDVRQYVQGCGV", "note": "[V20S]", "Tm": 73, "unfolding enthalpy (calorimetric)": 124, "unfolding enthalpy (van 't Hoff)": 126}]}, {"variants_of": "B1", "details": "Homo sapiens; pH 2.98; Thermal; DSC; Gly-HCl 0.05 M; structure 1LZ1; whole UniProt chain shown", "units": {"Tm": "°C", "unfolding enthalpy (calorimetric)": "kcal/mol", "unfolding enthalpy (van 't Hoff)": "kcal/mol"}, "values": [{"variant": "MKALIVLGLVLLSVTVQGKVFERCELARTLKRLGMDGYRGISLANWMCLAKWESGYNTRATNYNAGDRSTDYGIFQINSRYWCNDGKTPGAVNACHLSCSALLQDNIADAVACAKRVVRDPQGIRAWYAWRNRCQNRDVRQYVQGCGV", "note": "[V128Y]", "Tm": 69.3, "unfolding enthalpy (calorimetric)": 114, "unfolding enthalpy (van 't Hoff)": 114}]}, {"variants_of": "B1", "details": "Homo sapiens; pH 3.18; Thermal; DSC; Gly-HCl 0.05 M; structure 1LZ1; whole UniProt chain shown", "units": {"Tm": "°C", "unfolding enthalpy (calorimetric)": "kcal/mol", "unfolding enthalpy (van 't Hoff)": "kcal/mol"}, "values": [{"variant": "MKALIVLGLVLLSVTVQGKVFERCELARTLKRLGMDGYRGISLANWMCLAKWESGYNTRATNYNAGDRSTDYGIFQINSRYWCNDGKTPGAVNACHLSCSALLQDNIADAVACAKRVVRDPQGIRAWYAWRNRCQNRDVRQYVQGCGV", "note": "[V128Y]", "Tm": 72.2, "unfolding enthalpy (calorimetric)": 120, "unfolding enthalpy (van 't Hoff)": 121}]}, {"variants_of": "B1", "details": "Homo sapiens; pH 3.38; Thermal; DSC; Gly-HCl 0.05 M; structure 1LZ1; whole UniProt chain shown", "units": {"Tm": "°C", "unfolding enthalpy (calorimetric)": "kcal/mol", "unfolding enthalpy (van 't Hoff)": "kcal/mol"}, "values": [{"variant": "MKALIVLGLVLLSVTVQGKVFERCELARTLKRLGMDGYRGISLANWMCLAKWESGYNTRATNYNAGDRSTDYGIFQINSRYWCNDGKTPGAVNACHLSCSALLQDNIADAVACAKRVVRDPQGIRAWYAWRNRCQNRDVRQYVQGCGV", "note": "[V128Y]", "Tm": 75.4, "unfolding enthalpy (calorimetric)": 125, "unfolding enthalpy (van 't Hoff)": 125}]}]}
